Patent US20100004162A1 (ROCKEFELLER UNIVERSITY, published 2010)
“And” between values parts separate entries of the source, which are not always exact repeats. Identical values can stand only once. Blank lines part the entries; values can stand above or below the molecule they belong to.

Experiments:
[1] = molecular target: chicken α4β2 nicotinic acetylcholine receptor expressed in Xenopus oocytes (chicken) (UniProt P09482); experiment: cell-based or functional assay
[2] = molecular target: T1, nAChR alpha 7 subunit (chick alpha 7 construct) expressed in 293T cells (chick, UniProt P22770 24-502); experiment: Far Western blot of extracts of transfected 293T cells
T1 construct: It was in the extract of transfected 293T cells, separated by SDS-PAGE and probed by Far Western
T1 sequence (P22770 24-502): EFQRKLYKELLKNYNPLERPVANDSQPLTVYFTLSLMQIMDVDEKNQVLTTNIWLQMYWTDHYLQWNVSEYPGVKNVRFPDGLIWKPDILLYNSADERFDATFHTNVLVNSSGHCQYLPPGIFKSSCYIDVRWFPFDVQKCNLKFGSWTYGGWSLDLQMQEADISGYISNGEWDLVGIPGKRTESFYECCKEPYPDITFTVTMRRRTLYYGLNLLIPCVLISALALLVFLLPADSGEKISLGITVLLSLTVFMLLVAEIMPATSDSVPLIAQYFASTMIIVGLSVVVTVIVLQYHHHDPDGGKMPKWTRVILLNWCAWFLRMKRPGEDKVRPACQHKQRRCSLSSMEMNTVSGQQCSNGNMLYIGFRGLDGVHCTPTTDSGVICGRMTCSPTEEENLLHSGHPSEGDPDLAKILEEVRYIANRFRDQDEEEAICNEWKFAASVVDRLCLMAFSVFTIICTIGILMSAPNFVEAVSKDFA
Excerpt: Far Western Analysis. A fragment of the Lynx1 cDNA corresponding to the mature polypeptide was cloned in frame to the C-terminus of the coding sequence for the secreted human placental alkaline phosphatase (referred to as Lynx/AP). The APtag-4 vector was provided by Dr. John Flanagan (Cheng, H.-J. et al (1995) Cell 82, 371-381). Constructs were transfected into 293T cells using calcium phosphate precipitation. Conditioned media was collected and treated as described (Cheng, H.-J. et al (1995) Cell 82, 371-381): 20 μg of crude extract was electrophoretically separated and transferred to PVDF membrane (Immobilon P, Millipore). Filters were renatured as specified (Rodriguez, P. L. & Carrasco, L. (1994) Biotech. 17, 702-707), incubated overnight with equal amounts of cultured supernatants containing lynx/AP or unfused AP, washed, and treated with NBT/BCIP substrate according to manufacturer's directions (Pharmacia). To determine the relative activity of Lynx/AP protein compared to unfused AP, a dilution series of cultured supernatants was blotted onto nitrocellulose paper with a slot blot apparatus and reacted for AP activity.
The cells were harvested and lysed and cell extract was run out on an SDS-PAGE gel. […]

Chain of chicken α4β2 nicotinic acetylcholine receptor expressed in Xenopus oocytes (chicken) (P09482 24-622, chain 1 of 2): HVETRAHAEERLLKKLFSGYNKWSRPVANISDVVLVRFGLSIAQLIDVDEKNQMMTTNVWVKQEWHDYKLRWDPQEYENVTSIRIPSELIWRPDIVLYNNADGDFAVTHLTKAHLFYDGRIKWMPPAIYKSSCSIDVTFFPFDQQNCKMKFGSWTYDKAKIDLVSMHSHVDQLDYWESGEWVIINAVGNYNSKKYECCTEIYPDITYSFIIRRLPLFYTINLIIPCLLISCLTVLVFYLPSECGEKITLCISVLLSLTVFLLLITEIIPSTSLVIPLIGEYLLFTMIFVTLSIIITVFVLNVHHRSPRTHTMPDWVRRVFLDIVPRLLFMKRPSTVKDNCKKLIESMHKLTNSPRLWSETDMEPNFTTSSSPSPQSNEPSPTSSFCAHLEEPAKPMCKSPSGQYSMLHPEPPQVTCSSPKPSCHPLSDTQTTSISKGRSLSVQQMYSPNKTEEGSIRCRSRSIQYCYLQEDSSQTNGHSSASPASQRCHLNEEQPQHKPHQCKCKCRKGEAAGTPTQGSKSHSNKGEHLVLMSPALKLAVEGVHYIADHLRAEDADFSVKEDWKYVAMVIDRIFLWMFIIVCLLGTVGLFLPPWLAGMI
Chain of chicken α4β2 nicotinic acetylcholine receptor expressed in Xenopus oocytes (chicken) (P09484 19-491, chain 2 of 2, further chain): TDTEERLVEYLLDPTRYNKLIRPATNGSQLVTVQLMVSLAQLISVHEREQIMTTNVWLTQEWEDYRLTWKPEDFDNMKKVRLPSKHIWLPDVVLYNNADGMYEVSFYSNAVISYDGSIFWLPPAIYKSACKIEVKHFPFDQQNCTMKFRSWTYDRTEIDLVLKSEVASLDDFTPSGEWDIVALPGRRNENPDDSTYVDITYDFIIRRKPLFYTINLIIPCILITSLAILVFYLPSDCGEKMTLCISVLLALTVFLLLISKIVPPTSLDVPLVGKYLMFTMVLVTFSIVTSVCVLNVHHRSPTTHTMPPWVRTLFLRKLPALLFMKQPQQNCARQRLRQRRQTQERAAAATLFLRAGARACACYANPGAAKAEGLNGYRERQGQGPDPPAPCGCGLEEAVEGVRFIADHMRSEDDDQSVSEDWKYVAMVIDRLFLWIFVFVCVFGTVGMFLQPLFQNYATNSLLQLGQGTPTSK

- amplitude of the ACh-evoked macroscopic currents [1]: 30% to 40% (2×) and 35%
Molecule: Lynx1-HA (CMV2611), column purified Lynx1 (from UniProt P0DP60 21-92) (ligand)

- binding result [2]: binds
B1: Lynx/AP fusion protein (other)
chain: LECHVCAYNGDNCFKPMRCPAMATYCMTTRTYFTPYRMKVRKSCVPSCFETVYDGYSKHASATSCCQYYLCN
notes: It was used as conditioned medium of transfected 293T cells; also called Lynx1-alkaline phosphatase (AP) fusion; Lynx/AP supernatant; not shown: secreted human placental alkaline phosphatase from the APtag-4 vector
